According to paper PMC7738341:

Key:
[1] = target: tubulin (microtubules) (human (endogenous in HeLa)) (UniProt P68363)
[2] = target: tubulin (microtubules) (human (endogenous in HeLa)) (UniProt P68363); test: FRAP; live HeLa cells expressing the CST, 37°C, 5% CO2; EYFP bleached in a circular ROI of 2 μm radius in the cytoplasm; recovery curves fitted by a two-phase exponential association function; the phase with lower mobility is named MTs-bound fraction

Sequence of UniProt P68363 (P68363 whole entry, chain 1 of 2): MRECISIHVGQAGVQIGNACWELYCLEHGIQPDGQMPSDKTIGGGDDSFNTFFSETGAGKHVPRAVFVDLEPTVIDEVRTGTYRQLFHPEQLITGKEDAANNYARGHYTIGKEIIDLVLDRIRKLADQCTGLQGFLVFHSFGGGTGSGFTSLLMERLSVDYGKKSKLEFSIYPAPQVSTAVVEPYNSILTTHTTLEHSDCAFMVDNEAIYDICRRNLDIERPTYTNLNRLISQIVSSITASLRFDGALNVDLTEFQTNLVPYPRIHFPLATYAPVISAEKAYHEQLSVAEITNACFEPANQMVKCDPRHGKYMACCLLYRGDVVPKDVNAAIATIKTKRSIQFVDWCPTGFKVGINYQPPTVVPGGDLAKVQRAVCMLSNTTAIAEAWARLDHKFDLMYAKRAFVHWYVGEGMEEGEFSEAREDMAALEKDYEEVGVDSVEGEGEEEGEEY
Sequence of UniProt P68363 (P07437 whole entry, chain 2 of 2, further chain): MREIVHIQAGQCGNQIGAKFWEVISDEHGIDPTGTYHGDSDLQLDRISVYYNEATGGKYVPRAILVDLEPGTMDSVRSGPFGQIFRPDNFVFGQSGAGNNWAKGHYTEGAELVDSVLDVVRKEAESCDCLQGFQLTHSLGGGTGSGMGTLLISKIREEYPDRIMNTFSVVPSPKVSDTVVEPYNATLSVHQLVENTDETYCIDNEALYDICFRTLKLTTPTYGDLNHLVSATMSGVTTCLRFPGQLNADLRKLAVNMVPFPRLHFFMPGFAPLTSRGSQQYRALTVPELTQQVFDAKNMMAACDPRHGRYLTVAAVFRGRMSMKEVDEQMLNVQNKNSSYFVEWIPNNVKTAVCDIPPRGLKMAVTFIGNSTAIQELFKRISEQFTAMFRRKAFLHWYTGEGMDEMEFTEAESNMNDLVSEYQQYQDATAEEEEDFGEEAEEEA

Row | Substance | FRAP mobile fraction (Mob calc) in live HeLa cells [1] [%] | MTs-bound fraction [2] [%]
1 | Conformational Sensitive Tau with the Q336H mutation (CST^Q336H) (from UniProt P10636-8 1-441) (natural protein) | 79 | 
2 | Conformational Sensitive Tau, wild type (CST^WT) (from UniProt P10636-8 1-441) (natural protein) |  | 61
